Patent US20180155427A1 (Novartis, published 2018)
Substitutions are numbered along the chain they refer to. Names may count otherwise.

Legend:
[1] = biological target: T1, human PD-1 expressed on cells (human, UniProt Q15116 25-288); assay: FACS blocking assay on PD-1-expressing 300.19 cells; blocked ligand at constant concentration: PD-L1-huIgG1 Fc fusion protein (legend paragraph 211 names 'PD-L1-Ig and PD-L2-Ig' for FIG. 8A); bound ligand detected with PE anti-human IgG F(ab')2
T1 construct: whole, on cells; Treated as one molecule; also called PD-1 expressing Jurkat cells; human PD-1 transfected Jurkat cells
Protocol: Incubation was at 4° C. for 30 min. Bound ligand fusion proteins were detected with PE-conjugated F(ab′)2 fragment of goat anti-human IgG which doesn't recognize IgG4 mAbs (Southern Biotech 2043-09), and flow cytometry.

[2] = biological target: T1, human PD-1 expressed on cells; assay: rank among the 16 humanized clones by FACS binding data on PD-1-expressing cells
[3] = biological target: T1, human PD-1 expressed on cells; assay: rank among the 16 humanized clones in competition with Alexa 488-labeled murine mAb BAP049 on PD-1-expressing 300.19 cells, first experiment
Protocol: (§1) Incubations with the mAb mixtures having different concentration ratios of test mAb to labeled mAb was at 4° C. for 30 min. Bound labeled murine mAb was then quantified using a FACS machine. The experiment was performed twice.

[4] = biological target: T1, human PD-1 expressed on cells; assay: rank among the 16 humanized clones in competition with Alexa 488-labeled murine mAb BAP049 on PD-1-expressing 300.19 cells, second experiment
Protocol: as §1

T1 sequence (Q15116 25-288): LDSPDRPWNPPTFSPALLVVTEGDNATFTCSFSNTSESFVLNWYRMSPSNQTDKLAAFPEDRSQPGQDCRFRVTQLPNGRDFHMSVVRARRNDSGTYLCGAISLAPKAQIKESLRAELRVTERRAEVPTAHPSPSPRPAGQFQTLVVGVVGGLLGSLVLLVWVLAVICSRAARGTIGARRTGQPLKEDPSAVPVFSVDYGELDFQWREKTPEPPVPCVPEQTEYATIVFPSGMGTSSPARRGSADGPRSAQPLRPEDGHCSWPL

B1: chimeric antibody BAP049-chi (Tyr) (antibody, human IgG4 S228P, kappa, V domains shown)
VH: QVQLQQSGSELVRPGASVKLSCKASGYTFTTYWMHWVRQRPGQGLEWIGNIYPGTGGSNFDEKFKNRTSLTVDTSSTTAYMHLASLTSEDSAVYYCTRWTTGTGAYWGQGTTVTVSS
VL: DIVMTQSPSSLTVTAGEKVTMSCKSSQSLLDSGNQKNFLTWYQQKPGQPPKLLIFWASTRESGVPDRFTGSGSVTDFTLTISSVQAEDLAVYYCQNDYSYPYTFGQGTKVEIKR
notes: Murine variable regions, human IgG4(S228P), human kappa; also called BAP049-chi-Y; Chi mAb (Tyr)
With B1 as the binder, how does the “IC50 (read off the curve)” value [1] read?
Its value is about 0.8 µg/mL.

B2: humanized mAb BAP049-hum02 (antibody, human IgG4 S228P, kappa, V domains shown)
VH: EVQLVQSGAEVKKPGESLRISCKGSGYTFTTYWMHWVRQATGQGLEWMGNIYPGTGGSNFDEKFKNRVTITADKSTSTAYMELSSLRSEDTAVYYCTRWTTGTGAYWGQGTTVTVSS
VL: DIQMTQSPSSLSASVGDRVTITCKSSQSLLDSGNQKNFLTWYQQKPGQAPRLLIYWASTRESGIPPRFSGSGYGTDFTLTINNIESEDAAYYFCQNDYSYPYTFGQGTKVEIKR
notes: Human IgG4(S228P), human kappa; tested as concentrated supernatant of transiently transfected CHO cells
B2 was tested. Which “Ranking FACS data” value [2] did it give?
The value was 6.

What about the “Competition Binding 1st exp. (rank)” value [3] of the same binder?
Its value is 3.

And the “Competition Binding 2nd exp. (rank)” value [4]?
Its value is 2.

B3: humanized mAb BAP049-hum12 (antibody, human IgG4 S228P, kappa, V domains shown)
VH: B2 VH
VL: DIQMTQSPSSLSASVGDRVTITCKSSQSLLDSGNQKNFLTWYLQKPGQSPQLLIYWASTRESGVPSRFSGSGSGTDFTFTISSLEAEDAATYYCQNDYSYPYTFGQGTKVEIKR
notes: as for B2
Which “Ranking FACS data” value [2] does the source give for B3 here?
The value was 3.

What about the “Competition Binding 1st exp. (rank)” value [3] of the same binder?
Its value is 8.

And the “Competition Binding 2nd exp. (rank)” value [4]?
Its value is 16.

B4: humanized mAb BAP049-hum15 (antibody, human IgG4 S228P, kappa)
heavy: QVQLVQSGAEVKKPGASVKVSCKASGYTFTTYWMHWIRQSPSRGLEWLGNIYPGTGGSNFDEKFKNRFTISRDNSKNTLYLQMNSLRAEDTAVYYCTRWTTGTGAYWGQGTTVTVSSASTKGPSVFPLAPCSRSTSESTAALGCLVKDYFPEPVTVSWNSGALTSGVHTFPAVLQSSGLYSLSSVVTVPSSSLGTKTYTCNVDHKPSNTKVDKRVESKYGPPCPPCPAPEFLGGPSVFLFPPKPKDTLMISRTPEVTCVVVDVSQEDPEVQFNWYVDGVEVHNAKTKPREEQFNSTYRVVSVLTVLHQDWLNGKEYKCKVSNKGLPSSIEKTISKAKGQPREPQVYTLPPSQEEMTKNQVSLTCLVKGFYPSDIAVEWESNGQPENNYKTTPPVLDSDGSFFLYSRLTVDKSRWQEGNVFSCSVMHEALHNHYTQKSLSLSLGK
light: EIVLTQSPDFQSVTPKEKVTITCKSSQSLLDSGNQKNFLTWYQQKPGQAPRLLIYWASTRESGVPSRFSGSGSGTDFTFTISSLEAEDAATYYCQNDYSYPYTFGQGTKVEIKRTVAAPSVFIFPPSDEQLKSGTASVVCLLNNFYPREAKVQWKVDNALQSGNSQESVTEQDSKDSTYSLSSTLTLSKADYEKHKVYACEVTHQGLSSPVTKSFNRGEC
notes: as for B2
For B4, which “Ranking FACS data” value [2] is on record?
Its value is 6.

And the “Competition Binding 1st exp. (rank)” value [3]?
Its value is 7.

And the “Competition Binding 2nd exp. (rank)” value [4]?
Its value is 15.

B5: humanized mAb BAP049-hum10 (antibody, human IgG4 S228P, kappa)
heavy: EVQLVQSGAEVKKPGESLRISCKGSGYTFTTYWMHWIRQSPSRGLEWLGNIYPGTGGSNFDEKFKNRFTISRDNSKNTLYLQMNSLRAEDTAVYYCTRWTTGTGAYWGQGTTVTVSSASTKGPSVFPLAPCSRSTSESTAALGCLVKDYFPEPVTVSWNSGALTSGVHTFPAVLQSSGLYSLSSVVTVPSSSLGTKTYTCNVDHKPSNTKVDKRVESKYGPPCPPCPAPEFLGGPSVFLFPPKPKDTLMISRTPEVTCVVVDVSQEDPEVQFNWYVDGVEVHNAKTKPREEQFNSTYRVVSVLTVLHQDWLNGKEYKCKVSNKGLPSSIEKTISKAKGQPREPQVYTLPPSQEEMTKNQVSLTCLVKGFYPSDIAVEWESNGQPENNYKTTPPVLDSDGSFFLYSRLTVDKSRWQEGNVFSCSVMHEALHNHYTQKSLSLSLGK
light: B4 light with D9A, F10T, Q11L, V13L, T14S, K16G, K18R, V19A, I21L, T22S
notes: Human IgG4(S228P), human kappa; tested as concentrated supernatant of transiently transfected CHO cells; also called Clone No. 10
How did the “Ranking FACS data” value [2] turn out when B5 was run?
The value was 7.

What about the “Competition Binding 1st exp. (rank)” value [3] of the same binder?
Its value is 6.

And the “Competition Binding 2nd exp. (rank)” value [4]?
The value was over 4.

And the “IC50 (read off the curve)” value [1]?
The value was about 1 µg/mL.

B6: humanized mAb BAP049-hum11 (antibody, human IgG4 S228P, kappa)
heavy: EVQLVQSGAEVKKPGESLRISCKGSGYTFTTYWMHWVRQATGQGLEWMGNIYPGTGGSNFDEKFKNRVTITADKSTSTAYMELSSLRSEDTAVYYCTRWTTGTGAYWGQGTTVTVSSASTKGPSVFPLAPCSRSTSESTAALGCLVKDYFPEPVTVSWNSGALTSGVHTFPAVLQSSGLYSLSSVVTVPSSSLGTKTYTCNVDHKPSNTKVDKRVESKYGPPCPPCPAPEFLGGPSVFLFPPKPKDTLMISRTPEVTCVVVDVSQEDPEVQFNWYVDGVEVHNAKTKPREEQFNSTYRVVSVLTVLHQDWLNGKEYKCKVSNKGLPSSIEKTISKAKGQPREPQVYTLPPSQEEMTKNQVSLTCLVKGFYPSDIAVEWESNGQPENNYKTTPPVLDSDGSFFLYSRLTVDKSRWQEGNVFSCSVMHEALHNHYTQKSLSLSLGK
light: B4 light with D9A, F10T, Q11L, V13L, T14S, K16G, K18R, V19A, I21L, T22S
notes: Human IgG4(S228P), human kappa; tested as concentrated supernatant of transiently transfected CHO cells; also called Clone No. 11
For B6, which “Ranking FACS data” value [2] is on record?
The value was 6.

And the “Competition Binding 1st exp. (rank)” value [3]?
Its value is 4.

And the “Competition Binding 2nd exp. (rank)” value [4]?
Its value is over 4.

B7: humanized mAb BAP049-hum08 (antibody, human IgG4 S228P, kappa)
heavy: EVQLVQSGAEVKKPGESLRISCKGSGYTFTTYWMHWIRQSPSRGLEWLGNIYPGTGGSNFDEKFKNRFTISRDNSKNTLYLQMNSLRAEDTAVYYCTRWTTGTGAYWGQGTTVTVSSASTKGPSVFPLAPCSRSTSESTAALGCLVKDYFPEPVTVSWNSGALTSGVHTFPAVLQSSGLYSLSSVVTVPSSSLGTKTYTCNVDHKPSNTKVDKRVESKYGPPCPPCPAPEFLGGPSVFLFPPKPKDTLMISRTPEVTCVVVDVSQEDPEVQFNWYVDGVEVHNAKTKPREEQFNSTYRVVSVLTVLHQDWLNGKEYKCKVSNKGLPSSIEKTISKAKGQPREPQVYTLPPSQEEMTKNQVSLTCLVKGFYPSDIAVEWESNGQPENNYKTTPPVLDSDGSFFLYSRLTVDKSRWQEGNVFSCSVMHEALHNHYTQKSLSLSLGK
light: B4 light
notes: Human IgG4(S228P), human kappa; tested as concentrated supernatant of transiently transfected CHO cells; also called Clone No. 08
Which results are given for B7?
Ranking FACS data [2]: 7; Competition Binding 1st exp. (rank) [3]: 7; Competition Binding 2nd exp. (rank) [4]: 4

B8: humanized mAb BAP049-hum07 (antibody, human IgG4 S228P, kappa)
heavy: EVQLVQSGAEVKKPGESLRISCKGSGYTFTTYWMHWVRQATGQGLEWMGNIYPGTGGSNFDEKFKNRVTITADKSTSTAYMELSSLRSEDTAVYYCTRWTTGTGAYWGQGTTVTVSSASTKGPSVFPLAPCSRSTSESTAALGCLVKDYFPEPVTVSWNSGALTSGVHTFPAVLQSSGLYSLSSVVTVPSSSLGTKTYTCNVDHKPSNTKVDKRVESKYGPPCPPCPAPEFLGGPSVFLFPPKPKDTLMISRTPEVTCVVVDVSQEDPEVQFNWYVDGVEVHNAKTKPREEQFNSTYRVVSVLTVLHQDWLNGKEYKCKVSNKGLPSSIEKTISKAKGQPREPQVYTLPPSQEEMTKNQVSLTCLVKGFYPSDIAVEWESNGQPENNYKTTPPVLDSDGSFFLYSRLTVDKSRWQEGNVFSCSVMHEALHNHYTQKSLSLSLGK
light: EIVLTQSPATLSLSPGERATLSCKSSQSLLDSGNQKNFLTWYQQKPGKAPKLLIYWASTRESGVPSRFSGSGSGTDFTFTISSLEAEDAATYYCQNDYSYPYTFGQGTKVEIKRTVAAPSVFIFPPSDEQLKSGTASVVCLLNNFYPREAKVQWKVDNALQSGNSQESVTEQDSKDSTYSLSSTLTLSKADYEKHKVYACEVTHQGLSSPVTKSFNRGEC
notes: as for B2
For B8, which “Ranking FACS data” value [2] is on record?
Its value is 4.

What about the “Competition Binding 1st exp. (rank)” value [3] of the same binder?
Its value is 7.

And the “Competition Binding 2nd exp. (rank)” value [4]?
The value was over 4.

B9: humanized mAb BAP049-hum01 (antibody, human IgG4 S228P, kappa, V domains shown)
VH: B2 VH
VL: EIVLTQSPATLSLSPGERATLSCKSSQSLLDSGNQKNFLTWYQQKPGQAPRLLIYWASTRESGVPSRFSGSGSGTEFTLTISSLQPDDFATYYCQNDYSYPYTFGQGTKVEIKR
notes: Human IgG4(S228P), human kappa; tested as concentrated supernatant of transiently transfected CHO cells; also called Clone No. 01
With B9 as the binder, how does the “Ranking FACS data” value [2] read?
The value was 2.

And the “Competition Binding 1st exp. (rank)” value [3]?
The value was 7.

What about the “Competition Binding 2nd exp. (rank)” value [4] of the same binder?
Its value is 2.

What about the “IC50 (read off the curve)” value [1] of the same binder?
The value was about 1 µg/mL.

B10: humanized mAb BAP049-hum05 (antibody, human IgG4 S228P, kappa, V domains shown)
VH: B2 VH
VL: B9 VL with Q48K, R51K, E76D, L79F, D87E, F89I
notes: Human IgG4(S228P), human kappa; tested as concentrated supernatant of transiently transfected CHO cells; also called Clone No. 05
B10 was tested. Which “Ranking FACS data” value [2] did it give?
The value was 5.

What about the “Competition Binding 1st exp. (rank)” value [3] of the same binder?
The value was 5.

And the “Competition Binding 2nd exp. (rank)” value [4]?
Its value is over 4.

What about the “IC50 (read off the curve)” value [1] of the same binder?
Its value is about 1 µg/mL.

B11: humanized mAb BAP049-hum04 (antibody, human IgG4 S228P, kappa, V domains shown)
VH: EVQLVQSGAEVKKPGESLRISCKGSGYTFTTYWMHWIRQSPSRGLEWLGNIYPGTGGSNFDEKFKNRFTISRDNSKNTLYLQMNSLRAEDTAVYYCTRWTTGTGAYWGQGTTVTVSS
VL: B9 VL with Q48K, R51K, E76D, L79F, D87E, F89I
notes: as for B2
Which “Ranking FACS data” value [2] does the source give for B11 here?
The value was 14.

And the “Competition Binding 1st exp. (rank)” value [3]?
Its value is 15.

And the “Competition Binding 2nd exp. (rank)” value [4]?
Its value is 15.

B12: humanized mAb BAP049-hum14 (antibody, human IgG4 S228P, kappa)
heavy: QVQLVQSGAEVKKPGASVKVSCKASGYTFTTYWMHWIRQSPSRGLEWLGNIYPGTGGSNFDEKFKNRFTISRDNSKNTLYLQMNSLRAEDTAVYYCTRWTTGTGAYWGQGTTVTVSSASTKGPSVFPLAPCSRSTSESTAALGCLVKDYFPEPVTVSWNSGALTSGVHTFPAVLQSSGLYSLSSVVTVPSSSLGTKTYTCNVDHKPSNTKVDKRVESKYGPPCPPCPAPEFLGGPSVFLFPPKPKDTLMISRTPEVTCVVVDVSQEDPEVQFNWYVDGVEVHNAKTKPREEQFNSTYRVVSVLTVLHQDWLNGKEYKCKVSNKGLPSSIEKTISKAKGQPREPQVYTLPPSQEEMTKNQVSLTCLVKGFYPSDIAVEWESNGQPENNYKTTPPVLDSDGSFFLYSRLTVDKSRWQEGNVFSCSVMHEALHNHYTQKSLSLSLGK
light: B8 light with K48Q, K51R
notes: as for B2
What does the source list for B12?
Ranking FACS data [2]: 16; Competition Binding 1st exp. (rank) [3]: 7; Competition Binding 2nd exp. (rank) [4]: 15

B13: humanized mAb BAP049-hum06 (antibody, human IgG4 S228P, kappa)
heavy: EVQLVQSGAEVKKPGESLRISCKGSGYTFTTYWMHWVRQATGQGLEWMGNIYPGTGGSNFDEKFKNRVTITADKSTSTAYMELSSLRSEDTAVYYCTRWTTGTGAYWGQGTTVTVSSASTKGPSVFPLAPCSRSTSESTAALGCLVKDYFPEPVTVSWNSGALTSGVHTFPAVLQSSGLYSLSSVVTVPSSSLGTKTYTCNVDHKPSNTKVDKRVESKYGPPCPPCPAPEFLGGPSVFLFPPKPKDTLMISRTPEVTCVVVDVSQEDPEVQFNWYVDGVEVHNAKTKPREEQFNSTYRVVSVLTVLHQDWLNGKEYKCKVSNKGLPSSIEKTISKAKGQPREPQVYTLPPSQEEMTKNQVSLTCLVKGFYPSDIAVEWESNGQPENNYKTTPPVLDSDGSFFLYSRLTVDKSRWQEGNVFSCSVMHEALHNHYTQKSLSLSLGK
light: DIVMTQTPLSLPVTPGEPASISCKSSQSLLDSGNQKNFLTWYQQKPGQAPRLLIYWASTRESGVPSRFSGSGSGTDFTFTISSLEAEDAATYYCQNDYSYPYTFGQGTKVEIKRTVAAPSVFIFPPSDEQLKSGTASVVCLLNNFYPREAKVQWKVDNALQSGNSQESVTEQDSKDSTYSLSSTLTLSKADYEKHKVYACEVTHQGLSSPVTKSFNRGEC
notes: as for B2
How did the “Ranking FACS data” value [2] turn out when B13 was run?
The value was 1.

And the “Competition Binding 1st exp. (rank)” value [3]?
The value was 7.

What about the “Competition Binding 2nd exp. (rank)” value [4] of the same binder?
Its value is 3.

B14: humanized mAb BAP049-hum09 (antibody, human IgG4 S228P, kappa)
heavy: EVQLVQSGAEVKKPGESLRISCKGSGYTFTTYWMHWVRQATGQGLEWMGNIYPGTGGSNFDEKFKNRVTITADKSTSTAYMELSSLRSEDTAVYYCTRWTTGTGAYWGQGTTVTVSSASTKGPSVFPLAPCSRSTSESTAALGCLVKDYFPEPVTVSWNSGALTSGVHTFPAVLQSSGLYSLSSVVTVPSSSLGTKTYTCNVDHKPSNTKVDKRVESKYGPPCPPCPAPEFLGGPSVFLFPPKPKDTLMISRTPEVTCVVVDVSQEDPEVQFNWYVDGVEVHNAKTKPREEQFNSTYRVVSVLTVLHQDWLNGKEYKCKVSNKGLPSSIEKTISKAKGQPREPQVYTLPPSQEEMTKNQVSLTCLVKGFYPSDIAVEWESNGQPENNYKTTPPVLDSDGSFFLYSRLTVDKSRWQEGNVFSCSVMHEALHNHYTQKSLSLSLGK
light: B4 light
notes: Human IgG4(S228P), human kappa; tested as concentrated supernatant of transiently transfected CHO cells; also called Clone No. 09
Which “Ranking FACS data” value [2] does the source give for B14 here?
Its value is 7.

And the “Competition Binding 1st exp. (rank)” value [3]?
Its value is 2.

What about the “Competition Binding 2nd exp. (rank)” value [4] of the same binder?
The value was 4.

B15: humanized mAb BAP049-hum13 (antibody, human IgG4 S228P, kappa)
heavy: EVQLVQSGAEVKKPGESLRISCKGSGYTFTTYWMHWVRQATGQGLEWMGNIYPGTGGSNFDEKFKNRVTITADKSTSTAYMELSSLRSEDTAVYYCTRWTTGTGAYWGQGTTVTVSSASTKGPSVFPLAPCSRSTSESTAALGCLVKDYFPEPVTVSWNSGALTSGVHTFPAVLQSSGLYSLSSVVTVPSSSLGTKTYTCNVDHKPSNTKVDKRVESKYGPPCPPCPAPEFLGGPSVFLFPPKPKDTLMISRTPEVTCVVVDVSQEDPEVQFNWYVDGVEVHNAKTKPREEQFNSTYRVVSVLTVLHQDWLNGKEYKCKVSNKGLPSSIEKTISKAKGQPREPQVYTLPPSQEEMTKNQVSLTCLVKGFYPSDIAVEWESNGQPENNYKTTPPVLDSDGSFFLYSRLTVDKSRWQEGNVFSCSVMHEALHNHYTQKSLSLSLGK
light: B13 light with I2V, T7S, P15L, E17Q, Q48K, R51K
notes: as for B2
Which results are given for B15?
Ranking FACS data [2]: 6; Competition Binding 1st exp. (rank) [3]: 1; Competition Binding 2nd exp. (rank) [4]: 1

B16: humanized mAb BAP049-hum16 (antibody, human IgG4 S228P, kappa, V domains shown)
VH: B11 VH with I37V, S40A, S42G, R43Q, L48M
VL: EIVLTQSPDFQSVTPKEKVTITCKSSQSLLDSGNQKNFLTWYQQKPGQAPRLLIYWASTRESGVPSRFSGSGSGTDFTFTISSLEAEDAATYYCQNDYSYPYTFGQGTKVEIKR
notes: as for B2
Which results are given for B16?
Ranking FACS data [2]: 15; Competition Binding 1st exp. (rank) [3]: 16; Competition Binding 2nd exp. (rank) [4]: 15

B17: humanized mAb BAP049-hum03 (antibody, human IgG4 S228P, kappa, V domains shown)
VH: B11 VH
VL: B2 VL
notes: as for B2
How did the “Ranking FACS data” value [2] turn out when B17 was run?
The value was 7.

What about the “Competition Binding 1st exp. (rank)” value [3] of the same binder?
Its value is 8.

And the “Competition Binding 2nd exp. (rank)” value [4]?
Its value is 14.
